Literature values, collected in publication PMC11988861, “Step Enzymatic Hydrolysis and In Silico Screening-Assisted Preparation of Bioactive Peptides from Abalone” (Foods, 2025).

Biological target: ACE (Homo sapiens, UniProt P12821)
Set-up: method as in PMID 35323475
Settings: literature ACEi peptides from skipjack tuna muscle

Chain of ACE (P12821 30-1306, species assumed): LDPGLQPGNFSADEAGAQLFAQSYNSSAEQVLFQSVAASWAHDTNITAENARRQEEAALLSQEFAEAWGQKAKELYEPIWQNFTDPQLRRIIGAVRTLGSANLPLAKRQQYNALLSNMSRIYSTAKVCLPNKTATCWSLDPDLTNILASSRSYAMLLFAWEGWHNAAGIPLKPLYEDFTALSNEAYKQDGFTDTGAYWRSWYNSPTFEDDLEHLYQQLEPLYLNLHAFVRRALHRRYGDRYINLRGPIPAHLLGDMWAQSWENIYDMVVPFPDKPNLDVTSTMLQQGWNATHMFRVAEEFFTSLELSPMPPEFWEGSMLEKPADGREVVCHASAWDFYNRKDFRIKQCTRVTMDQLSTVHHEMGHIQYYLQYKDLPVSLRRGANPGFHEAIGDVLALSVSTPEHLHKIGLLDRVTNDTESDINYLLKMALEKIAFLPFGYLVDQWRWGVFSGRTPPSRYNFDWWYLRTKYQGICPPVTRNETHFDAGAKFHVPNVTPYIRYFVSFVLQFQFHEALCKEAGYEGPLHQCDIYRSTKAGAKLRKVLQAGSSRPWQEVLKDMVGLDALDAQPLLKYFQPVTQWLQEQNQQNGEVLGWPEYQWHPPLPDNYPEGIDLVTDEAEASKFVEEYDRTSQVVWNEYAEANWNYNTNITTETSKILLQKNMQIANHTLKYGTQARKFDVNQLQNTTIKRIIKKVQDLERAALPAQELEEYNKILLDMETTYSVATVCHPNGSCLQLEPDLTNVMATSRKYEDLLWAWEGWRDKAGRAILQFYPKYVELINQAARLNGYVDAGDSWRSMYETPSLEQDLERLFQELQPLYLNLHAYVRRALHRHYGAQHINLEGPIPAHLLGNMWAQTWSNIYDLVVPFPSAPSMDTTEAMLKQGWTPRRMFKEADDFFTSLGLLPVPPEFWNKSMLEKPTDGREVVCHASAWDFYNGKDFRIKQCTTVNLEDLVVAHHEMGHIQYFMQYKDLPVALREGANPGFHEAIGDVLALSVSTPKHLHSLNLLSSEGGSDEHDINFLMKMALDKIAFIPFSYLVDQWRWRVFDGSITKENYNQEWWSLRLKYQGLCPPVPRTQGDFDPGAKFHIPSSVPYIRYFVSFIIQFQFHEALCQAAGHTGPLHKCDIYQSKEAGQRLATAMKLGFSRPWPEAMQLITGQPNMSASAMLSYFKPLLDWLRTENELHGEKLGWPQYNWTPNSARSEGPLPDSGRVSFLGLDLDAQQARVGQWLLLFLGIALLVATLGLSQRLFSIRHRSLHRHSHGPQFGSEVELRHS

Q: With VDRYF as the substance, how does the “ACEi IC50” value read?
A: 280 µg/mL
